Data from paper PMC6353898 (2019).

Molecular target: EGFR recombinant human protein (human, UniProt P00533 25-645)
Test: SPR

Kd: 7.2 µM
Binder: AEYDFYGPGNEGSW (designed binder) [Pep24]
